{"source": "paper PMC10540216", "about": "“Activity Guided Azide-methyllysine Photo-trapping for Substrate Profiling of Lysine Demethylases” (Journal of the American Chemical Society, 2023)", "molecules": {"B1": {"name": "ECHB_HUMAN (protein, UniProt P55084 34-474, looked up)", "Trifunctional enzyme subunit …": "AAPAVQTKTKKTLAKPNIRNVVVVDGVRTPFLLSGTSYKDLMPHDLARAALTGLLHRTSVPKEVVDYIIFGTVIQEVKTSNVAREAALGAGFSDKTPAHTVTMACISANQAMTTGVGLIASGQCDVIVAGGVELMSDVPIRHSRKMRKLMLDLNKAKSMGQRLSLISKFRFNFLAPELPAVSEFSTSETMGHSADRLAAAFAVSRLEQDEYALRSHSLAKKAQDEGLLSDVVPFKVPGKDTVTKDNGIRPSSLEQMAKLKPAFIKPYGTVTAANSSFLTDGASAMLIMAEEKALAMGYKPKAYLRDFMYVSQDPKDQLLLGPTYATPKVLEKAGLTMNDIDAFEFHEAFSGQILANFKAMDSDWFAENYMGRKTKVGLPPLEKFNNWGGSLSLGHPFGATGCRLVMAAANRLRKEGGQYGLVAACAAGGQGHAMIVEAYPK"}, "B2": {"name": "PAIRB_HUMAN (protein, UniProt Q8NC51 2-408, looked up)", "SERPINE1 mRNA-binding protein …": "PGHLQEGFGCVVTNRFDQLFDDESDPFEVLKAAENKKKEAGGGGVGGPGAKSAAQAAAQTNSNAAGKQLRKESQKDRKNPLPPSVGVVDKKEETQPPVALKKEGIRRVGRRPDQQLQGEGKIIDRRPERRPPRERRFEKPLEEKGEGGEFSVDRPIIDRPIRGRGGLGRGRGGRGRGMGRGDGFDSRGKREFDRHSGSDRSSFSHYSGLKHEDKRGGSGSHNWGTVKDELTESPKYIQKQISYNYSDLDQSNVTEETPEGEEHHPVADTENKENEVEEVKEEGPKEMTLDEWKAIQNKDRAKVEFNIRKPNEGADGQWKKGFVLHKSKSEEAHAEDSVMDHHFRKPANDITSQLEINFGDLGRPGRGGRGGRGGRGRGGRPNRGSRTDKSSASAPDVDDPEAFPALA"}, "B3": {"name": "LMNA_HUMAN (protein, UniProt P02545 1-661, looked up)", "Prelamin-A/C": "METPSQRRATRSGAQASSTPLSPTRITRLQEKEDLQELNDRLAVYIDRVRSLETENAGLRLRITESEEVVSREVSGIKAAYEAELGDARKTLDSVAKERARLQLELSKVREEFKELKARNTKKEGDLIAAQARLKDLEALLNSKEAALSTALSEKRTLEGELHDLRGQVAKLEAALGEAKKQLQDEMLRRVDAENRLQTMKEELDFQKNIYSEELRETKRRHETRLVEIDNGKQREFESRLADALQELRAQHEDQVEQYKKELEKTYSAKLDNARQSAERNSNLVGAAHEELQQSRIRIDSLSAQLSQLQKQLAAKEAKLRDLEDSLARERDTSRRLLAEKEREMAEMRARMQQQLDEYQELLDIKLALDMEIHAYRKLLEGEEERLRLSPSPTSQRSRGRASSHSSQTQGGGSVTKKRKLESTESRSSFSQHARTSGRVAVEEVDEEGKFVRLRNKSNEDQSMGNWQIKRQNGDDPLLTYRFPPKFTLKAGQVVTIWAAGAGATHSPPTDLVWKAQNTWGCGNSLRTALINSTGEEVAMRKLVRSVTVVEDDEDEDGDDLLHHHHGSHCSSSGDPAEYNLRSRTVLCGTCGQPADKASASGSGAQVGGPISSGSSASSVTVTRSYRSVGGSGGGSFGDNLVTRSYLLGNSSPRTQSPQNC"}, "B4": {"name": "IF4A2_HUMAN (protein, UniProt Q14240 1-407, looked up)", "Eukaryotic initiation factor …": "MSGGSADYNREHGGPEGMDPDGVIESNWNEIVDNFDDMNLKESLLRGIYAYGFEKPSAIQQRAIIPCIKGYDVIAQAQSGTGKTATFAISILQQLEIEFKETQALVLAPTRELAQQIQKVILALGDYMGATCHACIGGTNVRNEMQKLQAEAPHIVVGTPGRVFDMLNRRYLSPKWIKMFVLDEADEMLSRGFKDQIYEIFQKLNTSIQVVLLSATMPTDVLEVTKKFMRDPIRILVKKEELTLEGIKQFYINVEREEWKLDTLCDLYETLTITQAVIFLNTRRKVDWLTEKMHARDFTVSALHGDMDQKERDVIMREFRSGSSRVLITTDLLARGIDVQQVSLVINYDLPTNRENYIHRIGRGGRFGRKGVAINFVTEEDKRILRDIETFYNTTVEEMPMNVADLI"}, "B5": {"name": "HNRPL_HUMAN (protein, UniProt P14866 1-589, looked up)", "Heterogeneous nuclear …": "MSRRLLPRAEKRRRRLEQRQQPDEQRRRSGAMVKMAAAGGGGGGGRYYGGGSEGGRAPKRLKTDNAGDQHGGGGGGGGGAGAAGGGGGGENYDDPHKTPASPVVHIRGLIDGVVEADLVEALQEFGPISYVVVMPKKRQALVEFEDVLGACNAVNYAADNQIYIAGHPAFVNYSTSQKISRPGDSDDSRSVNSVLLFTILNPIYSITTDVLYTICNPCGPVQRIVIFRKNGVQAMVEFDSVQSAQRAKASLNGADIYSGCCTLKIEYAKPTRLNVFKNDQDTWDYTNPNLSGQGDPGSNPNKRQRQPPLLGDHPAEYGGPHGGYHSHYHDEGYGPPPPHYEGRRMGPPVGGHRRGPSRYGPQYGHPPPPPPPPEYGPHADSPVLMVYGLDQSKMNCDRVFNVFCLYGNVEKVKFMKSKPGAAMVEMADGYAVDRAITHLNNNFMFGQKLNVCVSKQPAIMPGQSYGLEDGSCSYKDFSESRNNRFSTPEQAAKNRIQHPSNVLHFFNAPLEVTEENFFEICDELGVKRPSSVKVFSGKSERSSSGLLEWESKSDALETLGFLNHYQMKNPNGPYPYTLKLCFSTAQHAS"}, "B6": {"name": "TBB5_HUMAN (protein, UniProt P07437 1-444, looked up)", "Tubulin beta chain": "MREIVHIQAGQCGNQIGAKFWEVISDEHGIDPTGTYHGDSDLQLDRISVYYNEATGGKYVPRAILVDLEPGTMDSVRSGPFGQIFRPDNFVFGQSGAGNNWAKGHYTEGAELVDSVLDVVRKEAESCDCLQGFQLTHSLGGGTGSGMGTLLISKIREEYPDRIMNTFSVVPSPKVSDTVVEPYNATLSVHQLVENTDETYCIDNEALYDICFRTLKLTTPTYGDLNHLVSATMSGVTTCLRFPGQLNADLRKLAVNMVPFPRLHFFMPGFAPLTSRGSQQYRALTVPELTQQVFDAKNMMAACDPRHGRYLTVAAVFRGRMSMKEVDEQMLNVQNKNSSYFVEWIPNNVKTAVCDIPPRGLKMAVTFIGNSTAIQELFKRISEQFTAMFRRKAFLHWYTGEGMDEMEFTEAESNMNDLVSEYQQYQDATAEEEEDFGEEAEEEA"}, "B7": {"name": "ATPA_HUMAN (protein, UniProt P25705 44-553, looked up)", "ATP synthase F(1) complex …": "QKTGTAEMSSILEERILGADTSVDLEETGRVLSIGDGIARVHGLRNVQAEEMVEFSSGLKGMSLNLEPDNVGVVVFGNDKLIKEGDIVKRTGAIVDVPVGEELLGRVVDALGNAIDGKGPIGSKTRRRVGLKAPGIIPRISVREPMQTGIKAVDSLVPIGRGQRELIIGDRQTGKTSIAIDTIINQKRFNDGSDEKKKLYCIYVAIGQKRSTVAQLVKRLTDADAMKYTIVVSATASDAAPLQYLAPYSGCSMGEYFRDNGKHALIIYDDLSKQAVAYRQMSLLLRRPPGREAYPGDVFYLHSRLLERAAKMNDAFGGGSLTALPVIETQAGDVSAYIPTNVISITDGQIFLETELFYKGIRPAINVGLSVSRVGSAAQTRAMKQVAGTMKLELAQYREVAAFAQFGSDLDAATQQLLSRGVRLTELLKQGQYSPMAIEEQVAVIYAGVRGYLDKLEPSKITKFENAFLSHVVSQHQALLGTIRADGKISEQSDAKLKEIVTNFLAGFEA"}, "B8": {"name": "LMNB1_HUMAN (protein, UniProt P20700 2-583, looked up)", "Lamin-B1": "ATATPVPPRMGSRAGGPTTPLSPTRLSRLQEKEELRELNDRLAVYIDKVRSLETENSALQLQVTEREEVRGRELTGLKALYETELADARRALDDTARERAKLQIELGKCKAEHDQLLLNYAKKESDLNGAQIKLREYEAALNSKDAALATALGDKKSLEGDLEDLKDQIAQLEASLAAAKKQLADETLLKVDLENRCQSLTEDLEFRKSMYEEEINETRRKHETRLVEVDSGRQIEYEYKLAQALHEMREQHDAQVRLYKEELEQTYHAKLENARLSSEMNTSTVNSAREELMESRMRIESLSSQLSNLQKESRACLERIQELEDLLAKEKDNSRRMLTDKEREMAEIRDQMQQQLNDYEQLLDVKLALDMEISAYRKLLEGEEERLKLSPSPSSRVTVSRASSSRSVRTTRGKRKRVDVEESEASSSVSISHSASATGNVCIEEIDVDGKFIRLKNTSEQDQPMGGWEMIRKIGDTSVSYKYTSRYVLKAGQTVTIWAANAGVTASPPTDLIWKNQNSWGTGEDVKVILKNSQGEEVAQRSTVFKTTIPEEEEEEEEAAGVVVEEELFHQQGTPRASNRSC"}, "B9": {"name": "EF1A1_HUMAN (protein, UniProt P68104 2-462, looked up)", "Elongation factor 1-alpha 1": "GKEKTHINIVVIGHVDSGKSTTTGHLIYKCGGIDKRTIEKFEKEAAEMGKGSFKYAWVLDKLKAERERGITIDISLWKFETSKYYVTIIDAPGHRDFIKNMITGTSQADCAVLIVAAGVGEFEAGISKNGQTREHALLAYTLGVKQLIVGVNKMDSTEPPYSQKRYEEIVKEVSTYIKKIGYNPDTVAFVPISGWNGDNMLEPSANMPWFKGWKVTRKDGNASGTTLLEALDCILPPTRPTDKPLRLPLQDVYKIGGIGTVPVGRVETGVLKPGMVVTFAPVNVTTEVKSVEMHHEALSEALPGDNVGFNVKNVSVKDVRRGNVAGDSKNDPPMEAAGFTAQVIILNHPGQISAGYAPVLDCHTAHIACKFAELKEKIDRRSGKKLEDGPKFLKSGDAAIVDMVPGKPMCVESFSDYPPLGRFAVRDMRQTVAVGVIKAVDKKAAGAGKVTKSAQKAQKAK"}, "B10": {"name": "RBMX_HUMAN (protein, UniProt P38159 1-391, looked up)", "RNA-binding motif protein, X …": "MVEADRPGKLFIGGLNTETNEKALEAVFGKYGRIVEVLLMKDRETNKSRGFAFVTFESPADAKDAARDMNGKSLDGKAIKVEQATKPSFESGRRGPPPPPRSRGPPRGLRGGRGGSGGTRGPPSRGGHMDDGGYSMNFNMSSSRGPLPVKRGPPPRSGGPPPKRSAPSGPVRSSSGMGGRAPVSRGRDSYGGPPRREPLPSRRDVYLSPRDDGYSTKDSYSSRDYPSSRDTRDYAPPPRDYTYRDYGHSSSRDDYPSRGYSDRDGYGRDRDYSDHPSGGSYRDSYESYGNSRSAPPTRGPPPSYGGSSRYDDYSSSRDGYGGSRDSYSSSRSDLYSSGRDRVGRQERGLPPSMERGYPPPRDSYSSSSRGAPRGGGRGGSRSDRGGGRSRY"}}, "system": "KDM4A-I71AzF", "experiment": "CASI: photo-crosslinking with HEK293T cell extracts, StrepTactin enrichment and LC-MS/MS proteomics;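 further: lysates from HEK293T cells pretreated with a KDM4 inhibitor to raise proteome methylation, affinity-purified after ±UV, gel-resolved, trypsin-digested, with exclusive unique peptides per protein averaged per condition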", "type": "binding, human", "conditions": "sheet \"Final results but with 0.01\""}
{"molecule": "B1", "values": [{"measurement": "Fold change (+UV/-UV)", "value": 0}]}
{"molecule": "B2", "values": [{"measurement": "Fold change (+UV/-UV)", "value": 0.8571}]}
{"molecule": "B3", "values": [{"measurement": "Fold change (+UV/-UV)", "value": 1.25}]}
{"molecule": "B4", "values": [{"measurement": "Fold change (+UV/-UV)", "value": 200}]}
{"molecule": "B5", "values": [{"measurement": "Fold change (+UV/-UV)", "value": 1.125}]}
{"molecule": "B6", "values": [{"measurement": "Fold change (+UV/-UV)", "value": 0.75}]}
{"molecule": "B7", "values": [{"measurement": "Fold change (+UV/-UV)", "value": 1.4}]}
{"molecule": "B8", "values": [{"measurement": "Fold change (+UV/-UV)", "value": 0.7273}]}
{"molecule": "B9", "values": [{"measurement": "Fold change (+UV/-UV)", "value": 0.9444}]}
{"molecule": "B10", "values": [{"measurement": "Fold change (+UV/-UV)", "value": 200}]}
